In US20250333496A1 (Novo Nordisk, published 2025):
Read-outs that look alike come from different tables or passages of the source.

Key:
[1] = target: T1, human IL-6 (mature hIL-6) (human, UniProt P05231 30-212); test: cell-based or functional assay
[2] = target: T1, human IL-6 (mature hIL-6); test: cell-based or functional assay; remark: listed apart in the source
[3] = target: T1, human IL-6 (mature hIL-6); test: cell-based or functional assay; remark: listed apart in the source
[4] = target: T1, human IL-6 (mature hIL-6); test: cell-based or functional assay; remark: listed apart in the source
[5] = target: T2, recombinant human HPC4-tagged IL-6 (human, UniProt P05231 30-212); test: SPR, HPC4-IL-6 captured on anti-HPC4 antibody, VHH injected, 25 C, 1:1 model
T2 construct: captured on an anti-HPC4 antibody in SPR; also called HPC4-human IL6
Description: Binding of purified anti-IL-6 VHHs to recombinant human HPC4-tagged IL-6 (SEQ ID NO: 98) was probed by Surface Plasmon Resonance (SPR).
IL-6 was captured at a flow rate of 10 μL/min for 30 seconds.
Subsequently, concentration series of VHH polypeptides according to Table 33 were injected at a flow rate of 50 μL/min for 200 seconds to allow for binding to […] followed by 600 seconds running buffer (10 mM HEPES, 150 mM NaCl, 5 mM CaCl₂, 0.05% (v/v) Surfactant P20, 1 mg/mL bovine serum albumin, pH 7.4) injection allowing dissociation from IL-6. The running buffer was also used for dilution of anti-IL-6 VHHs and IL-6. Regeneration of the chip was achieved using a regeneration buffer consisting of 50 mM EDTA in running buffer without CaCl₂, 30 seconds contact time, and a 30 μL/min flow rate applied twice to the surface. The binding data were collected at 25° C. at either a Biacore instrument (Cytiva AB, Uppsala) or a Bruker SPR32 (Bruker Daltonics). Data were analysed according to a 1:1 model using either BiaEvaluation or Biacore Insight Evaluation (Cytiva AB, Uppsala) or Bruker Analyser (Bruker Daltonics).

[6] = target: T3, IL-6R on HEK293-STAT3-Luc reporter cells (UniProt P08887 20-468, limits assumed); test: cell-based or functional assay
T3 sequence (looked up): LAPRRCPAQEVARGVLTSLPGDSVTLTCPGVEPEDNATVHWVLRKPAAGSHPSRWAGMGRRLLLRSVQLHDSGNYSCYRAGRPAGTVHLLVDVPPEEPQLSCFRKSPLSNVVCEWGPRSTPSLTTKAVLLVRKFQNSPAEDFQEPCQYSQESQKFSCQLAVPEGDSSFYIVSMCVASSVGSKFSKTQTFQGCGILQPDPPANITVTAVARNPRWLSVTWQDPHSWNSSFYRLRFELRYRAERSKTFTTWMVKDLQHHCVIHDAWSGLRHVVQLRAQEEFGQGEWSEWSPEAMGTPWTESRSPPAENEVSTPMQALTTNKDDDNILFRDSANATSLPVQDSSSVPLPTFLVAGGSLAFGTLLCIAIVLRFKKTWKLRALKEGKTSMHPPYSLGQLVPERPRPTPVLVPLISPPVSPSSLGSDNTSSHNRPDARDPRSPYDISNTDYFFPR

[7] = target: T3, IL-6R on HEK293-STAT3-Luc reporter cells; test: cell-based or functional assay; remark: listed apart in the source
[8] = target: T1, human IL-6 (mature hIL-6); test: cell-based or functional assay; remark: listed apart in the source
[9] = target: T1, human IL-6 (mature hIL-6); test: SPR (format not stated)

T2 sequence (P05231 other isoform, or with tags, fused parts or gaps limits assumed): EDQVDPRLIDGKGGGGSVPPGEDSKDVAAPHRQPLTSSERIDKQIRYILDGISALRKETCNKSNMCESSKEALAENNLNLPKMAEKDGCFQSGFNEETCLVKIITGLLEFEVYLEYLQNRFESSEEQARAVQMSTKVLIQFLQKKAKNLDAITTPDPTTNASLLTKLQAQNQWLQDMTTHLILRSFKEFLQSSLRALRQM
T1 sequence (P05231 30-212): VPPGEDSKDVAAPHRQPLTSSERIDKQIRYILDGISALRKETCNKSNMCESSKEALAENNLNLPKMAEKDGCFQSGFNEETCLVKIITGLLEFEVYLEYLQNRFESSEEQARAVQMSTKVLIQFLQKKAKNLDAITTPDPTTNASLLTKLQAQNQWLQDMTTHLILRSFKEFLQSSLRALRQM

B1: Polypeptide_29 (VHH)
VHH: EVQLVESGGGLVQPGGSLKLSCTTSGRRFSEYAVGWFRQAPGKEREFVADIGEQAENTWYAESVLGRFTISRDDAKNTVYLEMDGLKPEDTAVYYCAADKYGVGGNAQGYYDSWGQGTQVTVSS
notes: VHH_1.6 with C-terminal His tag extension E1; also called [VHH_1.6]-E1
B1 was tested, and the “IC50 (nM), STAT3-luc reporter gene assay” value [1] was 0.034 nM, the “Relative IC50 to Reference Polypeptide_29” value [1] was 1 fold and the “IC50 (nM), STAT3-luc reporter gene assay” value [2] was 0.044 nM. The “Relative IC50 to Polypeptide_29” value [2] was 1 fold, the “Relative IC50 to Reference Anti-IL6 Fab” value [2] was 1.1 fold and the “IC50 (nM) mean, STAT3-luc reporter gene assay” value (“IC50 (nM) mean” below) [3] was 0.039 nM. The “Relative IC50 to Polypeptide_29” value [3] was 1 fold, the “IC 50 (nM), reporter gene assay, 0% HSA” value [4] was 0.035 nM and the Kd [5] was 3.9 pM. For the same binder, the koff [5] was 8.69e-05 s⁻¹ and the kon [5] was 2.23e+07 M⁻¹ s⁻¹.

B2: Compound 16 (VHH)
VHH: EVQLVESGGGLVQPGGSLKLSCTTSGRRFSEYAVGWFRQAPGKEREFVADIGEQAENTWYAESVLGRFTISRDDAKNTVYLEMDGLKPEDTAVYYCAADKYGVGGNAQGYYDSWGQGTQVTVSS
modifications: Chem. 27 (C20 fatty acid substituent) on Cys in position 4 of the extension (SEQ ID NO: 161)
With B2 the “IC50 (nM) mean” value [3] was 0.054 nM and the “Relative IC50 to Polypeptide_29” value [3] was 1.6 fold.

B3: Compound 19 (VHH)
VHH: EVQLVESGGGLVQPGGSLKLSCTTSGRRFSEYAVGWFRQAPGKEREFVADIGEQAENTWYAESVLGRFTISRDDAKNTVYLEMDGLKPEDTAVYYCAADKYGVGGNAQGYYDSWGQGTQVTVSS
modifications: Chem. 27 (C20 fatty acid substituent) on Cys in position 4 and on Cys in position 6 of the extension (SEQ ID NO: 162)
In the case of B3, the “IC50 (nM) mean” value [3] is reported as 0.042 nM and the “Relative IC50 to Polypeptide_29” value [3] is reported as 1.1 fold.

B4: Compound 14 (VHH)
VHH: EVQLVESGGGLVQPGGSLKLSCTTSGRRFSEYAVGWFRQAPGKEREFVADIGEQAENTWYAESVLGRFTISRDDAKNTVYLEMDGLKPEDTAVYYCAADKYGVGGNAQGYYDSWGQGTQVTVSS
modifications: Chem. 24 (C16 fatty acid substituent) on Cys in position 4 of the extension (SEQ ID NO: 161)
In the case of B4, the “IC50 (nM) mean” value [3] is reported as 0.041 nM and the “Relative IC50 to Polypeptide_29” value [3] is reported as 1.1 fold.

B5: Compound 18 (VHH)
VHH: EVQLVESGGGLVQPGGSLKLSCTTSGRRFSEYAVGWFRQAPGKEREFVADIGEQAENTWYAESVLGRFTISRDDAKNTVYLEMDGLKPEDTAVYYCAADKYGVGGNAQGYYDSWGQGTQVTVSS
modifications: Chem. 26 (C18 fatty acid substituent) on Cys in position 4 and on Cys in position 6 of the extension (SEQ ID NO: 162)
B5 was tested, and the “IC50 (nM) mean” value [3] was 0.043 nM and the “Relative IC50 to Polypeptide_29” value [3] was 1.2 fold.

B6: Compound 17 (VHH)
VHH: EVQLVESGGGLVQPGGSLKLSCTTSGRRFSEYAVGWFRQAPGKEREFVADIGEQAENTWYAESVLGRFTISRDDAKNTVYLEMDGLKPEDTAVYYCAADKYGVGGNAQGYYDSWGQGTQVTVSS
modifications: Chem. 24 (C16 fatty acid substituent) on Cys in position 4 and on Cys in position 6 of the extension (SEQ ID NO: 162)
B6 was tested, and the “IC50 (nM) mean” value [3] was 0.04 nM and the “Relative IC50 to Polypeptide_29” value [3] was 1 fold.

B7: Compound 15 (VHH)
VHH: EVQLVESGGGLVQPGGSLKLSCTTSGRRFSEYAVGWFRQAPGKEREFVADIGEQAENTWYAESVLGRFTISRDDAKNTVYLEMDGLKPEDTAVYYCAADKYGVGGNAQGYYDSWGQGTQVTVSS
modifications: Chem. 26 (C18 fatty acid substituent) on Cys in position 4 of the extension (SEQ ID NO: 161)
B7 was tested, and the “IC50 (nM) mean” value [3] was 0.046 nM and the “Relative IC50 to Polypeptide_29” value [3] was 1.3 fold.

B8: anti-IL-6 VHH building block 7G05 SIA comparator (VHH)
VHH: QVKLEESGGGLVQPGGSLRLSCAASGSISRFNIMGWYRQAPGKQRELVADITNGGTTMYADSVKGRFTISRDNTKNTVYLQMNSLKPEDTAVYYCHTYYPTTGFDDWGQGAQVTVSS
With B8 the “IC50 (nM), STAT3-luc reporter gene assay” value [2] was 0.115 nM, the “Relative IC50 to Polypeptide_29” value [2] was 2.6 fold and the “Relative IC50 to Reference Anti-IL6 Fab” value [2] was 2.9 fold.

B9: Vobarilizumab anti-IL-6R domain SIA comparator (VHH)
VHH: EVQLVESGGGLVQPGGSLRLSCAASGSVFKINVMAWYRQAPGKGRELVAGIISGGSTSYADSVKGRFTISRDNAKNTLYLQMNSLRPEDTAVYYCAFITTESDYDLGRRYWGQGTLVTVSS
B9 was tested, and the “IC50 (nM), STAT3-luc reporter gene assay” value [6] was 0.114 nM, the “Relative IC50 to Polypeptide_29” value [6] was 2.6 fold and the “Relative IC50 to Reference Anti-IL6 Fab” value [6] was 2.9 fold. The “IC 50 (nM), reporter gene assay, 0% HSA” value [7] was 0.114 nM.

B10: Polypeptide_19 (VHH)
VHH: QLQLVESGGGWVQPGGSLKLSCTTSGRTFSSYAVGWFRQAPGKEREFVADIGENADNTWYAHSVKGRFTISRDNAKNTVYLQMNSLKPEDTAVYYCAADSYGVGGGAQGYYDSWGQGTQVTVSS
notes: VHH_1.11 with C-terminal His tag extension E1; also called [VHH_1.11]-E1
With B10 the “Reporter gene-assay [pM]” value [8] was 40.6 pM, the “IC50 (nM), STAT3-luc reporter gene assay” value [1] was 0.185 nM and the “Relative IC50 to Reference Polypeptide_29” value [1] was 5.4 fold. The “IC 50 (nM), reporter gene assay, 0% HSA” value [4] was 0.117 nM, the “IC 50 (nM), reporter gene assay, 1% HSA” value [4] was 0.064 nM and the Kd [9] was 1 pM.

B11: Reference Anti-IL6 Fab (Fab, V domains shown)
VH: EVQLVESGGGLVQPGGSLRLSCAASGFTISSNYMIWVRQAPGKGLEWVSDLYYYAGDTYYADSVKGRFTMSRDISKNTVYLQMNSLRAEDTAVYYCARWADDHPPWIDLWGRGTLVTVSS
VL: DIQMTQSPSTLSASVGDRVTITCRASQGISSWLAWYQQKPGKAPKVLIYKASTLESGVPSRFSGSGSGTEFTLTISSLQPDDFATYYCQQSWLGGSFGQGTKLEIKR
For B11, the “IC50 (nM), STAT3-luc reporter gene assay” value [2] was 0.039 nM, the “Relative IC50 to Polypeptide_29” value [2] was 0.9 fold and the “Relative IC50 to Reference Anti-IL6 Fab” value [2] was 1 fold. The “IC 50 (nM), reporter gene assay, 0% HSA” value [4] was 0.026 nM and the “IC 50 (nM), reporter gene assay, 1% HSA” value [4] was 0.017 nM.

B12: Polypeptide_34 (VHH)
VHH: EVQLVESGGGLVQAGGSLRLSCTASGGTFSEYAMAWFRQAPGKEREFVTDIGESGGTWYADSVKGRFTISRDNAKNTVYLQMNSLRPEDTAVYYCAADSYGVGGGAERYYDSWGQGTQVTVSS
notes: VHH_1.8 with C-terminal His tag extension E1; also called [VHH_1.8]-E1
In the case of B12, the “Reporter gene-assay [pM]” value [8] is reported as 43.6 pM, the “IC 50 (nM), reporter gene assay, 0% HSA” value [4] is reported as 0.066 nM and the “IC 50 (nM), reporter gene assay, 1% HSA” value [4] is reported as 0.046 nM. The Kd [9] was roughly 13.6 pM, the Kd [5] was 13.6 pM and the kon [5] was 2.88e+07 M⁻¹ s⁻¹.
